Tests used:
C57Bl/6J mice [1] = experiment: Analysis of geropathological lesions in tissue sections; type: in vivo, mouse; settings: at 110 weeks; heart, lung, liver, spleen, kidney, skeletal muscle; vs IgG control antibody
Protocol: C57Bl/6J mice are randomised to receive either X203 or IgG control antibody at a dose of 40m/kg via IP injection every 3 weeks from age 55 weeks to age 110 weeks.
At 110 weeks, mice are euthanized, sections are prepared from heart, lung, liver, spleen, kidney and skeletal muscle tissues, subjected to hematoxylin and eosin or Masson's trichrome staining and analysed by light microscopy. Tissue sections are evaluated for ageing-associated lesions as described in Snider et al., Geroscience (2019) 40: 97-103 and Snyder et al., Geroscience (2019) 41: 455-465 (both hereby incorporated by reference in their entirety). Analysis is performed by a veterinary pathologist blinded to treatment group.

C57Bl/6J mice [2] = experiment: Core body temperature of aged mice; type: in vivo, mouse; settings: mice aged 110 weeks; 40 mg/kg IP every 3 weeks from age 55 weeks; vs isotype control IgG
Protocol: (§1) From age 55 weeks (human equivalent of ˜45 years old (i.e. middle age)) to age 110 weeks (human equivalent of ˜75 years old), mice were administered with 40 mg/kg of either X203 or isotype-matched control IgG via intra-peritoneal injection every 3 weeks.
(§2) At age 110 weeks, frailty was assessed using the Mouse Frailty Index described in Rizzo et al. Curr Protoc Mouse Biol. (2018) 8(2):e45, which is hereby incorporated by reference in its entirety. In this protocol, mice are individually observed and evaluated for the absence or presence and severity of 27 different characteristics each scored as 0, 0.5, or 1 based on level of severity. A frailty index score is calculated as the cumulative score of all measures. As a separate measurement of frailty, core body temperature was recorded, as core body temperature is known to decrease with increasing frailty in mice (Reynolds et al., Mechanisms of Ageing and Development (1985) 30(2):143-52). Data were analysed by 2-way ANOVA.

C57Bl/6J mice [3] = experiment: Mouse Frailty Index in aged mice treated from 55 to 110 weeks of age; type: in vivo; settings: mice aged 110 weeks; 40 mg/kg IP every 3 weeks from age 55 weeks; vs isotype control IgG
Protocol: C57Bl/6J mice aged 46 weeks were obtained from the Jackson Laboratory, and randomised on a 1:1 basis to receive either X203 or an isotype control IgG antibody.
as §1, §2
End-point frailty scoring was performed 2 days prior to sacrifice using the accepted frailty scoring system (Sukoff Rizzo et al. 2018, Current Protocols in Mouse Biology 8 (2): e45.)

C57Bl/6J mice [4] = experiment: Gastrocnemius and soleus muscle weights; type: in vivo, mouse; settings: age 110 weeks; vs IgG control
Protocol: as §1
Mice also underwent body-composition assessment via echo MRI both at baseline (age 55 weeks) and at 108-109 weeks. This enabled calculation of the change in body fat mass and lean (muscle) mass in the X203 and IgG control treatment groups. Gastrocnemius and soleus muscles were also harvested from the mice at age 110 weeks and their weights were recorded. Data were analysed by 2-way ANOVA.

B1: X203: mouse anti-mouse IL-11 IgG antagonist antibody; VH SEQ ID NO:22, VL SEQ ID NO:23 (antibody, V domains shown)
VH: EVQLQQSGPELVKPGASVKIPCKASGYTFTDYNMDWVKQSHGKSLEWIGDINPHNGGPIYNQKFTGKATLTVDKSSSTAYMELRSLTSEDTAVYYCARGELGHWYFDVWGTGTTVTVSS
VL: DIVLTQSPASLAVSLGQRATISCRASKSVSTSGYSYIHWYQQKPGQPPKLLIYLASNLDSGVPARFSGSGSGTDFTLNIHPVEEEDAATYYCQHSRDLPPTFGGGTKLEIK
- geropathology lesions (C57Bl/6J mice [1]): fewer, smaller and/or less developed
- body temperature (C57Bl/6J mice [2]): significantly higher
- frailty index (C57Bl/6J mice [3]): significant reduction
- weight of gastrocnemius muscle as a proportion of body weight (C57Bl/6J mice [4]): greater
- weight of soleus muscle as a proportion of body weight (C57Bl/6J mice [4]): greater

Source: patent US20230399393A1, “METHODS TO EXTEND HEALTH-SPAN AND TREAT AGE-RELATED DISEASES” (National University of Singapore, priority 2020, published 2023)
